Here are results for one molecule from paper PMC4888889, “Role of VicRKX and GlnR in pH-Dependent Regulation of the Streptococcus salivarius 57.I Urease Operon”.

The data set addresses MalE (MBP) (UniProt P0AEX9 27-396). The experiment in a line: EMSA; EMSA: 50 mM Tris-HCl pH 7.4, 50 mM KCl, 2 mM MgCl2, 100 ng poly(dI-dC), 0.5 ug BSA, 0.01 pmol probe, 4 C 30 min; DAPA: 10 mM Tris-HCl pH 7.6, 60 mM KCl, 5% glyc. A general note: In EMSA bound probe runs differently from free probe, usually more slowly.

B1: VicR box probe (dsDNA)
DNA 1: CTAATATGTAAATGTTGCAAAATTTCTGAA
DNA 2: TTCAGAAATTTTGCAACATTTACATATTAG
Regarding B1, the binding result was “no binding”.
